# In FireProtDB (doi:10.1016/j.bpc.2007.12.006):
# Where “and” joins values, the source holds several entries; their conditions need not be identical. Identical values can stand only once.
# B1: Guanyl-specific ribonuclease T1 wild type, P00651 (protein)
# chain: MMYSKLLTLTTLLLPTALALPSLVERACDYTCGSNCYSSSDVSTAQAAGYQLHEDGETVGSNSYPHKYNNYEGFDFSVSSPYYEWPILSSGDVYSGGSPGADRVVFNENNQLAGVITHTGASGNNFVECT
# B2: Alpha-lactalbumin wild type, P00711 (protein)
# chain: MMSFVSLLLVGILFHATQAEQLTKCEVFRELKDLKGYGGVSLPEWVCTTFHTSGYDTQAIVQNNDSTEYGLFQINNKIWCKDDQNPHSSNICNISCDKFLDDDLTDDIMCVKKILDKVGINYWLAHKALCSEKLDQWLCEKL
# Details: CD, reversible: Yes, whole UniProt chain shown; for unfolding free energy: 25 °C; for heat capacity change of unfolding: Thermal
Protein,"unfolding free energy (Aspergillus oryzae (strain ATCC 42149 / RIB 40), pH 2.2, GdnHCl, Glycine-HCl 0.1 M, KCl 0.1 M) [kcal/mol]","unfolding free energy (Aspergillus oryzae (strain ATCC 42149 / RIB 40), pH 2.2, Urea, Glycine-HCl 0.1 M, KCl 0.1 M) [kcal/mol]","heat capacity change of unfolding (Aspergillus oryzae (strain ATCC 42149 / RIB 40), pH 2.2, Glycine-HCl 0.1 M, KCl 0.1 M)","unfolding free energy (Bos taurus, pH 7, GdnHCl, Cacodylic acid 0.05 M, NaCl 0.1 M) [kcal/mol]","unfolding free energy (Bos taurus, pH 7, Urea, Cacodylic acid 0.05 M, NaCl 0.1 M) [kcal/mol]","heat capacity change of unfolding (Bos taurus, pH 7, Cacodylic acid 0.05 M, NaCl 0.1 M)"
B1,2.72,2.77,2.5 kcal/mol/K and 2.65 kcal/mol/K,,,
B2,,,,2.41,2.35,2.15 kcal/mol/K and 2 kcal/mol/K
